Data taken from patent US20260061042A1, “POLYNUCLEOTIDE COMPOSITIONS AND USES THEREOF” (Pfizer Inc., priority 2024, published 2026).
Numbering of substitutions follows the chain as printed. Numbers in names are those of the source. Entries after “also recorded” stand apart in the source; their conditions may differ.

Key:
[1] = PapG Luminex ligand binding assay with globoside GbO4; settings: result in words
Procedure: 9. PapG Ligand Binding Assay with Globoside GbO4
To determine the ability of PapGLD mutants to bind the porcine derived globotetraosyl ceramide ligand GalNAc-Gal-Gal-Glc-ceramide (GbO4), a Luminex ligand binding assay was developed. Surfactant Protein-A (SP-A) was coupled to the surface of MagPlex beads by EDC/NHS, to capture the lipid tail of the globotetraosyl ceramide. The Globotetraosyl ceramide/SP-A beads were incubated with an eight-point threefold titration of PapG in a 96 well flat bottom white plate with final volume of 100 microliters of 50 mM HEPES PH 7.4, 10 mM NaCl, 0.0005% Tween 20 shaking at 300 rpm, 4° C. overnight. After 20-24 hours the ligand binding plates were read on a FlexMap 3D plate reader for measurement of well-bead region specific MFI. Ligand binding equilibrium dissociation constants (Kd) were calculated assuming one site specific binding and interpolated using non-linear curve fitting (GraphPad Prism) as the ligand concentration needed to achieve half-maximal binding. The Luminex derived apparent Kd values are based on approximately fifty bead counts per assay sample.
Binding of PapG proteins to GbO2 or GbO4 ligands was evaluated using a Luminex platform wherein ligands were coupled to MagPlex beads via surfactant protein A (for […]) or directly using […] conjugation (for […]). This assay was used to rank order binding affinities of the mutants, reported as Kd values interpolated from protein antigen titration curves (Table 7).

[2] = Thermal shift (SYPRO orange) melting temperature, apo form; format: physicochemical; settings: apo state, PBS pH 7.4
Procedure: PapG proteins were added to assay buffer (consisting of 4% DMSO, 1:1000 dilution of SYPRO orange (Invitrogen S6650) in PBS pH 7.4) at a final concentration of […]. Melt curves were analyzed in a QuantStudio 6 Real-time PCR system (ThermoFisher) using a dissociation protocol from 25° C. to 99° C., at 0.05° C./second. ROX was specified as the reporter.
The thermal stability of PapG WT and mutant proteins were determined using a SYPRO orange thermal shift-based differential scanning fluorimetry assay, wherein Tm designates the temperature at which 50% of the protein is unfolded. Non-covalent ligands often stabilize protein targets upon specific binding, resulting in an increase in protein melting temperature. Tm were therefore determined in the presence and absence of GbO3 for PapG, and the difference in Tm (ΔTm) of protein in the presence of ligand relative to the apo form was calculated.

[3] = test system: E. coli strain CFT073 expressing the fimbrial adhesin PapG; assay: PapG hemagglutination inhibition (HAI) assay on sera of mice immunized with PapG modRNA LNPs; format: in vivo; settings: 1 μg, 50 μl IM
Source text: Escherichia coli to the uroepithelium of human kidney. The PapG lectin binds to the globoside (GbO4) glycolipid, which is enriched in urinary tract tissue and consists of the tetrasacharide GalNAcβ1-3Galα1-4Galβ1-4Glc linked to ceramide. Here we present the use of a hemagglutination inhibition assay (HAI) to determine vaccine functional responses to protein subunit PapG or mRNA-expressed PapG antigens. In this assay the agglutination of human red blood cells (hRBCs) expressing GbO4 is caused by live E. coli CFT073 bacteria expressing PapG. The HAI assay measures the ability of PapG-elicited antibodies to prevent hRBC agglutination, exemplifying inhibition of the key bacterial adherence mechanism leading to clinical pyelonephritis. The assay was used to characterize the functional activity of PapG monoclonal antibodies (mAbs) raised against a PapG lectin domain subunit antigen. PapG HAI data from a mouse immunogenicity study are described that evaluated various 5 monovalent PapG modRNA LNPs and a PapG subunit comparator.
In this mouse study immunogenicity of different PapG mRNA constructs were evaluated. […]
iii. PapG Hemagglutination Inhibition Assay (HAI) 1. Preparation of Single Use Frozen E. coli CFT073 Banks Frozen bacterial stocks for use in the PapG HAI are stored at a concentration of ˜15 OD/mL. For stock preparation, take 6 ×100 μL of frozen parental strain CFT073 glycerol stock to seed six overnight cultures with ˜85 mL Luria's Broth (LB) each in 250 mL vented flasks. Flasks are shaken at 200 rpm and 37° C. overnight. On the same day, prepare 100 mL LB media with 30% glycerol and 0.4% sucrose by mixing […] 80% Glycerol with 0.8 mL 50% Sucrose in 64 mL LB and pre-chill at 4° C. After ˜16 h growth, determine the OD600 nm of each flask with the SpectraMax M5e plate reader by adding 100 μL culture to 900 μL LB (1:10 dilution). After reading the OD600, harvest cells by pelleting in a centrifuge at 4,000g, 4° C., for 30 minute. Determine the total OD of each of the six flasks, by multiplying the volume by OD/mL of each flask and divide by 15 OD to give the appropriate pellet resuspension volume. Discard supernatants and resuspend all pellets in the pre-chilled LB cryopreservant containing 30% glycerol and 0.4% sucrose, with a final volume as calculated above. Pool all resuspended pellets and mix gently, then aliquot into 1 mL/cryotube, and freeze at −70° C.
2. Preparing 10% hRBC Working Solution From Stock
Gently mix human red blood cells (hRBC) bottle (Rockland) by rocking ˜20×times, pipet out 10 mL of the hRBCs into a 15 ml conical tube. Centrifuge at 2,000 rpm(˜990×g) for 10 minutes and 4° C. Aspirate and discard the supernatant, then resuspend the pellet with 9 mL 4° C. PBS. The packed hRBCs in 15 mL conical tube should constitute roughly 1 mL of this total volume. Store these 10% hRBCs at 4° C. until use. […]
iv. PapG Hemagglutination Inhibition (HAI) Assay
The PapG hemagglutination inhibition (HAI) assay uses human red blood cells (hRBCs), which naturally express the PapG ligand GbO4 (globotetraosyl ceramide) on the cell surface, and the E. coli strain CFT073 expressing the fimbrial adhesin PapG. Upon mixing bacteria with hRBCs, […] cells remain suspended (presenting as a cloudy well), while no binding results in the red blood cells falling out of solution towards the center of the well (observed as pellet).
The total final well volume is 100 μL, with serum dilutions comprising 25 μL of this volume, strain CFT073 cells in […] volume, and hRBCs in a 50 μL volume. The assay plate is a V-bottom plate to which 25 μL 4° C. PBS is initially added to all wells. The positive control wells receive an additional 25 μL 4° C. PBS. The no-serum negative control consists of E. coli CFT073 cells plus hRBCs only (resulting agglutinated well appears cloudy). To accommodate pre-diluted sera transferred from the serum Master Dilution plate (MDP) an extra 5 μL 4° C. PBS is added to wells in Row A of the assay plate (columns 1 to 12). […]

B1: PapG^LD N96S G104A: PapG lectin domain N96S with G104A ligand binding site mutation; SEQ ID NO: 16 (protein)
chain: METDTLLLWVLLLWVPGSTGWNNIVFYSLGNVNSYQGGNVVITQRPQFITSWRPGIATVTWNQCNGPEFADGSWAYYREYIAWVVFPKKVMTKNGYPLFIEVHNKGSWSEENTGDSDSYFFLKAYKWDERAFDAGNLCQKPGETTRLTEKFNDIIFKVALPADLPLGDYSVTIPYTSGIQRHFASYLGARFKIPYNVAKTLPRENEMLFLFKNIGG
binding to GbO4 ligand [1]: prevent binding to GbO4; also recorded: lower the binding affinity; also recorded: eliminate ligand binding | Tm (Ave.) [2]: 64.54 °C

B2: PapG^LD N96S G122A: PapG lectin domain N96S with G122A putative conformation stabilizing mutation; SEQ ID NO: 20 (protein)
chain: B1 chain with A124G, G142A
binding to GbO4 ligand [1]: reduced binding

B3: PapG^LD N96S WTv1: WT PapG lectin domain (V1, first PapG operon), N96S removes non-native glycosylation, His-tagged; SEQ ID NO: 13 (protein)
chain: B1 chain with A124G
modifications: His tag
Tm (Ave.) [2]: 61.29 °C

B4: PapG^DSF N96S N242S N286S: Full-length donor strand complemented PapG, fully aglycosylated at N96S, N242S and N286S, His-tagged (protein)
chain: WNNIVFYSLGNVNSYQGGNVVITQRPQFITSWRPGIATVTWNQCNGPEFADGSWAYYREYIAWVVFPKKVMTKNGYPLFIEVHNKGSWSEENTGDSDSYFFLKGYKWDERAFDAGNLCQKPGETTRLTEKFNDIIFKVALPADLPLGDYSVTIPYTSGIQRHFASYLGARFKIPYNVAKTLPRENEMLFLFKNIGGCRPSAQSLEIKHGDLSINSANNHYAAQTLSVSCDVPANIRFMLLRSTTPTYSHGKKFSVGLGHGWDSIVSVNGVDTGETTMRWYKAGTQSLTIGSRLYGESSKIQPGVLSGSATLLMILPGGSSGGADVQINIRGNVYIPP
Tm (Ave.) [2]: 61.82 °C

B5: BMD576_PapG-DSF K172A_Thy1-GPI: monovalent PapG modRNA LNP; RNA construct SEQ ID NO: 66 (nucleic acid)
chain: AGGAGGACUGGUCGAACCUGCAUAGUGAUCAUAAGGUCAGCAUAGCCACCAUGGAGACCGACACCCUCCUGCUGUGGGUGCUGUUACUGUGGGUGCCCGGUAGCACCGGCUGGAACAACAUCGUGUUCUACAGCCUGGGCAACGUGAACAGCUACCAAGGCGGCAACGUGGUGAUCACACAGAGACCUCAGUUCAUCACAAGCUGGAGACCCGGCAUCGCCACCGUGACCUGGAAUCAGUGCAACGGCCCCGAGUUCGCCGACGGCAGCUGGGCCUACUACAGAGAGUACAUCGCCUGGGUGGUGUUCCCCAAGAAGGUGAUGACCAAGAACGGCUACCCCCUGUUCAUCGAGGUGCACAACAAGGGCAGCUGGAGCGAGGAGAACACCGGCGACAGCGACAGCUACUUCUUCCUGAAGGGCUACAAGUGGGACGAGAGAGCCUUCGACGCCGGCAACCUGUGUCAGAAGCCGGGGGAGACCACAAGACUUACCGAGAAGUUCAACGACAUCAUCUUCAAGGUGGCCCUGCCCGCCGACCUGCCCCUGGGCGACUACAGCGUGACCAUCCCCUACACAAGCGGCAUUCAGAGACACUUCGCUAGCUACCUGGGCGCUAGAUUCGCCAUCCCCUACAACGUGGCCAAGACCCUGCCUAGAGAGAACGAGAUGCUGUUCCUGUUCAAGAACAUCGGCGGCUGCAGACCUAGCGCUCAGAGCCUGGAGAUCAAGCACGGCGACCUGAGCAUCAACAGCGCCAACAACCACUACGCCGCUCAGACCCUGAGCGUGAGCUGCGACGUGCCCGCCAACAUCAGAUUCAUGCUGCUGAGAUCAACCACCCCCACCUACAGCCACGGCAAGAAGUUCAGCGUGGGCCUGGGCCACGGCUGGGACAGCAUCGUGAGCGUGAACGGCGUGGACACGGGCGAGACCACUAUGCGUUGGUACAAGGCCGGCACACAGAGCCUGACCAUCGGCAGCAGACUGUAUGGCGAAAGCUCCAAAAUCCAACCCGGCGUGCUGUCGGGGAGCGCCACCCUGCUGAUGAUACUGCCCGGAGGCAGCAGCGGCGGCGCCGACGUGCAGAUCAACAUCAGAGGCAACGUGUAUAUUCCGCCUAGCAGUGGUGGUGGGGGUAGCUCCGGCUCCGGAAGCAGCUGCGAGGGCAUCAGCCUGCUGGCUCAGAACACAAGCUGGCUGCUGCUGCUGCUGCUGAGCCUGAGCCUGCUGCAAGCCACCGACUUCAUGAGCCUGUGAUGAGCUCGCUUUCUUGCUGUCCAAUUUCUAUUAAAGGUUCCUUUGUUCCCUAAGUCCAACUACUAAACUGGGGGAUAUUAUGAAGGGCCUUGAGCAUCUGGAUUCUGCCUAAUAAAAAACAUUUAUUUUCAUUGCAAAAAAAAAAAAAAAAAAAAAAAAAAAAAAAAAAAAAAAAAAAAAAAAAAAAAAAAAAAAAAAAAAAAAAAAAAAAAAAAAA
modifications: modRNA in LNP
Step Titer GMT (HAI) ([3]; weeks 0, 4, bleed week 6, GMT of individual titers): 85,681 | Step Titer Pool (HAI) ([3]; weeks 0, 4, bleed week 6, serum pool): 81,000
